Data taken from US20180170995A1 (LEVICEPT, published 2018).
Values belong to the binder of their own block, whether it stands above or below them.

Target: TrkB receptor (UniProt Q16620 32-822, limits assumed)
Assay: cell-based or functional assay

Chain of TrkB receptor (Q16620 32-822 limits assumed): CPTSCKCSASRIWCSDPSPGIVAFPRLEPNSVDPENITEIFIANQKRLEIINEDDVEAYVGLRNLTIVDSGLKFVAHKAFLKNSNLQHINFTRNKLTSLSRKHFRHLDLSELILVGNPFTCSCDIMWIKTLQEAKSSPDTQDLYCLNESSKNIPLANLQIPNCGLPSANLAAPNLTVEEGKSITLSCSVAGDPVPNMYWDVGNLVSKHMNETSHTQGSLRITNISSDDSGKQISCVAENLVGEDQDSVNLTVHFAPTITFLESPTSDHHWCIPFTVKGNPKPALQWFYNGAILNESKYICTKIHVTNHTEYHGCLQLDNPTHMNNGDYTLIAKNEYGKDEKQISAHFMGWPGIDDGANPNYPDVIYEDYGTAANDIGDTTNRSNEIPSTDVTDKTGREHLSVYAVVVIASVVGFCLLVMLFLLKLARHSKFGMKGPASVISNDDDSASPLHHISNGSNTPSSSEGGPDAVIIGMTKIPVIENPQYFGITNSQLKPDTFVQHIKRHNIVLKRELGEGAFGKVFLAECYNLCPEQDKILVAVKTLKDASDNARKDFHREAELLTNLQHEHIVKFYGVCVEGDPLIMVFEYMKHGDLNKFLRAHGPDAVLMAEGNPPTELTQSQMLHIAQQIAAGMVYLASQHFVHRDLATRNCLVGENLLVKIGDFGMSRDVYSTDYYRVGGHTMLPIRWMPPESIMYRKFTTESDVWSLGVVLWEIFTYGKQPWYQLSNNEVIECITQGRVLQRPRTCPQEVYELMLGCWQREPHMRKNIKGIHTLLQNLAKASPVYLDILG

EC50, BDNF-induced activation of TrkB (luminescence, DiscoverX kit cells): 0.7 nM
B1: brain-derived neurotrophic factor (BDNF) (ligand, UniProt P23560 129-247, looked up)
chain: HSDPARRGELSVCDSISEWVTAADKKTAVDMSGGTVTVLEKVPVSKGQLKQYFYETKCNPMGYTKEGCRGIDKRHWNSQCRTTQSYVRALTMDSKKRIGWRFIRIDTSCVCTLTIKRGR

EC50, NT-4-induced activation of TrkB (luminescence, DiscoverX kit cells): 12 pM
B2: neurotrophin-4 (NT-4) (ligand, UniProt P34130 81-210, looked up)
chain: GVSETAPASRRGELAVCDAVSGWVTDRRTAVDLRGREVEVLGEVPAAGGSPLRQYFFETRCKADNAEEGGPGAGGGGCRGVDRRHWVSECKAKQSYVRALTADAQGRVGWRWIRIDTACVCTLLSRTGRA
